Source: publication PMC9837058, “Oncogenic mutations of PIK3CA lead to increased membrane recruitment driven by reorientation of the ABD, p85 and C-terminus” (Nature Communications, 2023)
[ ]: non-standard residue; d: D form. pY = N[C@@H](Cc1ccc(OP(=O)(O)O)cc1)C(=O)O

How the values were obtained:
Experiment in all cases: HDX-MS; purified p110α/p85α complex (9 pmol) incubated with pY peptide (1 µl of 50 µM) or buffer for 15 min on ice; exchange 3 s on ice and 3, 30, 300, 3000 s at 20 °C; 20 mM HEPES pH 7.5, 100 mM NaCl
Conditions in all cases: both partners purified
[1] = target: T1, p110α-p85α complex (wild type, full length) (human, UniProt P42336 1-1068; P27986 1-724)
T1 construct: p85α, human, residues 1-724; Heterodimer of m1 and m2; also called WT p110α/p85α; full-length p110α-p85α; source: Sf9 (baculovirus), co-expressed, purified (Ni-NTA, Strep column, Q column, gel filtration); not shown: His10, N-terminal, cleaved; 2x Strep, N-terminal, cleaved

[2] = target: T2, p110α H1047R-p85α complex (human, UniProt P42336 1-1068; P27986 1-724, H1047R)
T2 construct: p110α, human, full length with the oncogenic mutation H1047R; p85α, human, residues 1-724; Heterodimer of m4 and m2; also called p110α/p85α H1047R; source: Sf9 (baculovirus), co-expressed, purified (Ni-NTA, Strep column, Q column, gel filtration); not shown: His10, N-terminal, cleaved; 2x Strep, N-terminal, cleaved

[3] = target: T3, p110α ΔCter (1–1048)-p85α complex (human, UniProt P42336 1-1048; P27986 1-724)
T3 construct: p85α, human, residues 1-724; Heterodimer of m7 and m2; source: Sf9 (baculovirus), co-expressed, purified (Ni-NTA, Strep column, Q column, gel filtration); not shown: His10, N-terminal, cleaved; 2x Strep, N-terminal, cleaved

Measured: binding result

T1 sequence (P42336 whole entry, chain 1 of 2, the tested form may be a part): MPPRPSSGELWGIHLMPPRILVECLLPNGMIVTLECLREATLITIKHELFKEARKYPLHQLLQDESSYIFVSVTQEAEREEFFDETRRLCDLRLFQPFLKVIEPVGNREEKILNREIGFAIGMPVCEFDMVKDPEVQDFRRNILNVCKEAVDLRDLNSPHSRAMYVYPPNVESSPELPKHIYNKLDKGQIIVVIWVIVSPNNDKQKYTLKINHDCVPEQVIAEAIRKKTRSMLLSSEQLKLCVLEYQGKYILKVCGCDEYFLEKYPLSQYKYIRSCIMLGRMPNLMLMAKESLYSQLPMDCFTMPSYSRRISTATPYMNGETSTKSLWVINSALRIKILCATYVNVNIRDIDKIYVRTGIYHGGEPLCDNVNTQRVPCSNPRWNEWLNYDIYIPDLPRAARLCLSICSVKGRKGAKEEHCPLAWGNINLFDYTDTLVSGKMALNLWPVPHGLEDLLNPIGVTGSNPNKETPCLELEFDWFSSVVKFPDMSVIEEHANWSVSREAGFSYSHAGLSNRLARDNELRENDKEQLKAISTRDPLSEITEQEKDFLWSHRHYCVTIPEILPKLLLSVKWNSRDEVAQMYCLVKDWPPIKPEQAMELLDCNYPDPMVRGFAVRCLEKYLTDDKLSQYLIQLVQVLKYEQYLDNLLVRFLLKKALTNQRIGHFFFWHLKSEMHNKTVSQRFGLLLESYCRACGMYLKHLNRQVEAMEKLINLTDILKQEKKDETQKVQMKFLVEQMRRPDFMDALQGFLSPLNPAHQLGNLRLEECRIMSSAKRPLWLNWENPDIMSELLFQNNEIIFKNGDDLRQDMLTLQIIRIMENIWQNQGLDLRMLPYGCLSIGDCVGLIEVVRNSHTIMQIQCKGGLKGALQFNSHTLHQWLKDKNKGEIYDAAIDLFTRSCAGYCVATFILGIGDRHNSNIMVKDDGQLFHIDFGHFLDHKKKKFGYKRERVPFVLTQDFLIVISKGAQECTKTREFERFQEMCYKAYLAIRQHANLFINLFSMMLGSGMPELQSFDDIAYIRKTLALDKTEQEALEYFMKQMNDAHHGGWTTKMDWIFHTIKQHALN
T1 sequence (P27986 whole entry, chain 2 of 2, the tested form may be a part): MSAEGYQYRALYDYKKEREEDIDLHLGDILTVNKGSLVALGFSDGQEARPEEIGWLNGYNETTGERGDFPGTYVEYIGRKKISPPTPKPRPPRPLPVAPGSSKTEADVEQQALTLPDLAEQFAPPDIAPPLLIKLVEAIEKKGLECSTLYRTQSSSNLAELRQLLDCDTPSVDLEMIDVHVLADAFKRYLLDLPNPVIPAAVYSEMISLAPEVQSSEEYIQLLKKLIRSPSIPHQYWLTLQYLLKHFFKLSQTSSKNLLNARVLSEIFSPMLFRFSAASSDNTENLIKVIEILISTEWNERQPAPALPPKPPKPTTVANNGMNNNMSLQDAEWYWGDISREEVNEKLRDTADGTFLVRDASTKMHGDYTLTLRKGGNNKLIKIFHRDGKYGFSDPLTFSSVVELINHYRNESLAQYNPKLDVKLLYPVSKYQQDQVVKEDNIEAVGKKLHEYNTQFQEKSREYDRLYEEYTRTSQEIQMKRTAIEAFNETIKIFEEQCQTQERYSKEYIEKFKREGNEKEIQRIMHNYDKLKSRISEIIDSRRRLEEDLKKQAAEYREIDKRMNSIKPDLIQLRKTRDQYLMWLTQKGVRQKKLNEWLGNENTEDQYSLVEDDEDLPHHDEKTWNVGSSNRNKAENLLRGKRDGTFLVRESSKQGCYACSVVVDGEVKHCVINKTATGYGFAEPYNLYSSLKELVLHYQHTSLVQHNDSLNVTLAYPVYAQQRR
T3 sequence (P42336 1-1048, stated change not applied, chain 1 of 2): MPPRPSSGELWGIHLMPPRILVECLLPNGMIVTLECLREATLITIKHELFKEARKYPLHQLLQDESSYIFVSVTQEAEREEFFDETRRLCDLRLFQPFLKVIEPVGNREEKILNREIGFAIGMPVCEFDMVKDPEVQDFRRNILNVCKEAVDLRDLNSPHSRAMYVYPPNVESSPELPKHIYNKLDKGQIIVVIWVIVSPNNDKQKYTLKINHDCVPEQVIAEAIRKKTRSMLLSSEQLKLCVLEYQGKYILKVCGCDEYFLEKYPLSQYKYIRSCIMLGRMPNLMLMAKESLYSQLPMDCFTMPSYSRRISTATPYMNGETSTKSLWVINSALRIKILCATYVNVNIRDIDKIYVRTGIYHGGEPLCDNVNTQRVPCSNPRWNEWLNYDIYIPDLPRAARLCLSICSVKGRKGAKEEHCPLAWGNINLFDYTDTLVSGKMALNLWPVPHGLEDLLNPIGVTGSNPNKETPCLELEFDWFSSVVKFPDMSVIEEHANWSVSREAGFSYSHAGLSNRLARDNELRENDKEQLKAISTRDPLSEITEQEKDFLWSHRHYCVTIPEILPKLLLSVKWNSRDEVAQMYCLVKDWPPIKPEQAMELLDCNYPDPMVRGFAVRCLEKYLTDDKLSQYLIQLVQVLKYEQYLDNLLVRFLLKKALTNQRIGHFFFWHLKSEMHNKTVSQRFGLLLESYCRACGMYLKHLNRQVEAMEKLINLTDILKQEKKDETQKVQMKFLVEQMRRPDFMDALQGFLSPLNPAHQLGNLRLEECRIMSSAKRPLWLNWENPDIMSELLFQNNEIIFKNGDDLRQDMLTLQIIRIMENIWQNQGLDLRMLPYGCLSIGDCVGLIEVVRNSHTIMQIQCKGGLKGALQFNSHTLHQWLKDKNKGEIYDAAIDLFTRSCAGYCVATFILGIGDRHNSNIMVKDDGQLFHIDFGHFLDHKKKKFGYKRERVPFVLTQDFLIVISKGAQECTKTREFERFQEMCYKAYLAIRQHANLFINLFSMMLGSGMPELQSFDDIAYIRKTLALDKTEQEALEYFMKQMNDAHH
T3 sequence (P27986 whole entry, stated change not applied, chain 2 of 2, the tested form may be a part): as the sequence (P27986 whole entry, chain 2 of 2, the tested form may be a part) above
T2 sequence (P42336 whole entry H1047R, chain 1 of 2, the tested form may be a part): as the sequence (P42336 whole entry, chain 1 of 2, the tested form may be a part) above, with H1047R counted along it
T2 sequence (P27986 whole entry, chain 2 of 2, the tested form may be a part): as the sequence (P27986 whole entry, chain 2 of 2, the tested form may be a part) above

B1: PDGFR bis-phosphorylated pY peptide (PDGFR residues 735–767, pY740, pY751) (peptide)
peptide: H-ESDGG[pY]MDMSKDESID[pY]VPMLDMKGDIKYADIE-OH
SMILES: CC[C@H](C)[C@H](NC(=O)[C@H](CC(=O)O)NC(=O)[C@H](C)NC(=O)[C@H](Cc1ccc(O)cc1)NC(=O)[C@H](CCCCN)NC(=O)[C@@H](NC(=O)[C@H](CC(=O)O)NC(=O)CNC(=O)[C@H](CCCCN)NC(=O)[C@H](CCSC)NC(=O)[C@H](CC(=O)O)NC(=O)[C@H](CC(C)C)NC(=O)[C@H](CCSC)NC(=O)[C@@H]1CCCN1C(=O)[C@@H](NC(=O)[C@H](Cc1ccc(OP(=O)(O)O)cc1)NC(=O)[C@H](CC(=O)O)NC(=O)[C@@H](NC(=O)[C@H](CO)NC(=O)[C@H](CCC(=O)O)NC(=O)[C@H](CC(=O)O)NC(=O)[C@H](CCCCN)NC(=O)[C@H](CO)NC(=O)[C@H](CCSC)NC(=O)[C@H](CC(=O)O)NC(=O)[C@H](CCSC)NC(=O)[C@H](Cc1ccc(OP(=O)(O)O)cc1)NC(=O)CNC(=O)CNC(=O)[C@H](CC(=O)O)NC(=O)[C@H](CO)NC(=O)[C@@H](N)CCC(=O)O)[C@@H](C)CC)C(C)C)[C@@H](C)CC)C(=O)N[C@@H](CCC(=O)O)C(=O)O
notes: PDGFR residues 735-767; human has V where this peptide has I at two places; also called phosphopeptide; source: synthetic peptide; bought: New England Peptide
binds: all assays above
